Reference: PMC8600398

Tests used:
[1] = target: T1, 6His-CRP (cAMP receptor protein) (Escherichia coli (K-12 MG1655?)) (UniProt P0ACJ8); experiment: EMSA; settings: 10 mM Tris-HCl pH 7.5, 50 mM NaCl, 5 mM MgSO4, 1 mM DTT, 1 mg/ml BSA, 200 uM cAMP, 10% glycerol, 12 ug/ml poly(dI-dC), 5 nM DNA, 37 C 15 min; 5% PAGE 0.25X TBE …
T1 sequence: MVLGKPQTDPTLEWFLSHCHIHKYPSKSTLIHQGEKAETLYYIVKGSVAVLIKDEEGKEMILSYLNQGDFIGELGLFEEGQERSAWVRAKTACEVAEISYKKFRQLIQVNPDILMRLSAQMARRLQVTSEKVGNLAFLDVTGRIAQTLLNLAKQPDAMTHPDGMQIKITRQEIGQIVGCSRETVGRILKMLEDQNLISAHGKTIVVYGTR

[2] = test system: 6His-CRP (cAMP receptor protein) (Escherichia coli (K-12 MG1655?)); experiment: EMSA; settings: 10 mM Tris-HCl pH 7.5, 50 mM NaCl, 5 mM MgSO4, 1 mM DTT, 1 mg/ml BSA, 200 uM cAMP, 10% glycerol, 12 ug/ml poly(dI-dC), 5 nM DNA, 37 C 15 min; 5% PAGE 0.25X TBE …

GCCTACCGCATCCGCTTGCGTATCGACGGCGTATTGCATCCTTTACCGGATGTTTCACCGGATGCCGGAGTCGCATTAACCGCCAGATTAAAAGTGCTGGGAAACCTGG (double strand)
binding [1]: no binding

ytfK promoter region -515/+3
Kd [2]: 25 nM
